This series is described as follows: yeast display, Sf9 membrane polyspecificity reagent, FACS + sequencing; frameworks hold sequencing errors. The essentials: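 Galactose-induced (36–48 hours) yeast carrying a synthetic nanobody display library were exposed to 10% biotinylated, detergent-solubilized Sf9 membrane reagent at 4 °C for 1 hour. FACS followed streptavidin microbead enrichment, using low and high (top ~1%) gates for expression (anti-HA) and reagent binding (streptavidin). Colony PCR, MiSeq 2 × 250 sequencing and CDR-length filtering followed. Labels for polyreactivity reflect the gate of origin.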
For “QVQLVESGGGLVQAGGSLRLSCAASGRTFEYYAMGWYRQAPGKERELVASITSSGVRTYYADSVKGRFTISRDNAKNTVYLQMNSLKPEDTAVYYCAKRLVYSRWGDYWGQGTQVTVSS”, the “polyreactivity (PSR sort gate)” value is reported as “high polyreactivity”.

With “QVQLVESGGGLVQAGGSLRLSCAASGRTFFGYAMGWYRQAPGKERELVAAITTSGGSTYYADSVKGRFTISRDNAKNTVYLQMNSLKPEDTAVYYCAADSTNYWLGFYYWGQGTQVTVSS”, the “polyreactivity (PSR sort gate)” value is reported as “low polyreactivity”.

“QVQLVESGGGLVQAGGSLRLSCAASGRTFFHNPMGWYRQAPGKERELVAAISSGGGTYADSVKGRFTISRDNAKNTVYLQINSLKPEDTAVYYCAATLYNTEDDYWGQGTQVTVSS”: the “polyreactivity (PSR sort gate)” value was “low polyreactivity”.

As to “QVQLVESGGGLVQAGGSLRLSCAASGRTFFIYAMGWYRPAPGKERELVAAITYGGGRTFYADSVKGRFTISRDNAKYTVYLQMNSLKPEDTAVYYCAATVRGKRSTYDYWGQGTQVTVSS”, the “polyreactivity (PSR sort gate)” value is given as “high polyreactivity”.

As to “QVQLVESGGGLVQAGGSLRLSCAASGRTFFKNAMGWYRQAPGKERELVAAITSSGGTTYYADSVKGRFTISRDNAKNTVYLQMNSLKPEDTAVYYCATRTYPIRYGYGYWGQGTQVTVSS”, the “polyreactivity (PSR sort gate)” value was “high polyreactivity”.

With “QVQLVESGGGLVQAGGSLRLSCAASGRTFFKYVMGWSRQAPGKERELVAAITWNGGRTNYADSVKGRFTISRDYAKNTVYLQMNSLKPEDTAVYYCAAVTSVNPSVFNGNYWGQGTQVTVSS”, the “polyreactivity (PSR sort gate)” value is “low polyreactivity”.

“QVQLVESGGGLVQAGGSLRLSCAASGRTFFLYALGWYRQATGKERELFARISTSGGGTYYADSVKGRFTISRDHAKNTVYLQMISLKPEDTAVYYCAARTDRGQRRAGGYDFWGQGTQVTVSS”: the “polyreactivity (PSR sort gate)” value is “high polyreactivity”.

Take “QVQLVESGGGLVQAGGSLRLSCAASGRTFFPNAMGWYRQAPGKERELVASITSRGGGTYYADSVKGRFTISRDYAKNTVYLQMNSLKPEDTAVYYCADDRYYFSPGYNWWSEGYDYWGQGTQVTVSS”: the “polyreactivity (PSR sort gate)” value is recorded as “low polyreactivity”.

With “QVQLVESGGGLVQAGGSLRLSCAASGRTFFPYAMGWYRQAPGKEREFVAAITWSGGSTTYADSVKGRFTISRDNAKNTVYLQMTSLKPEDTAVYYCNDGRRRSYSYDYWGQGTQVTVSS”, the “polyreactivity (PSR sort gate)” value is “low polyreactivity”.

On to “QVQLVESGGGLVQAGGSLRLSCAASGRTFFPYGMGWYRQAPGKERELVASISYSGGITYYADSVKGRFTISRDNAKNTVYLQMNSLKPEDTAVYYCSVRTIWRFRYDYWGQGTQVTVSS”, for which the “polyreactivity (PSR sort gate)” value is recorded as “high polyreactivity”.

Regarding “QVQLVESGGGLVQAGGSLRLSCAASGRTFFQYGMGWYRQAPGKERELVASITRSGGRTNYADSVKGRFTISRDNAKNTVYLQMNSLKPEDTAVYYCAAYYYGSAAYGYGYNYWGQGTQVTVSS”, the “polyreactivity (PSR sort gate)” value is “high polyreactivity”.

As for “QVQLVESGGGLVQAGGSLRLSCAASGRTFFRNAMGWYRQAPGKERELVAAISKRGGSTRYADSVKGRFTISRDNAKNTAYLQMNSLQPEDTAVYYCAADSRLEYSHATLYYCGQGTQVTVSS”, the “polyreactivity (PSR sort gate)” value is “high polyreactivity”.

In the case of “QVQLVESGGGLVQAGGSLRLSCAASGRTFFRYGMGWYRQAPGKEREFVAAITRSGTTTYYADSVKGRFTISRDNAKNTVYLQMNSLKPEDTAVYYCAAQRAARVDGKSDYWGQGTQVTVTS”, the “polyreactivity (PSR sort gate)” value is listed as “low polyreactivity”.

Take “QVQLVESGGGLVQAGGSLRLSCAASGRTFFSNAMGWYRQAPGKERELVAVIDSGGSTYYADSVKGRFTISRDNAKNTVYLQMNSLKPEDTAVYYCAADTGTAPSEDYLGQGTQVTVSS”: the “polyreactivity (PSR sort gate)” value was “low polyreactivity”.

Turning to “QVQLVESGGGLVQAGGSLRLSCAASGRTFFSYTMGWYRQAPGKEREFVAAITTSGGYTHYADSVKGRFTISRDNAKNTVYLQMNSLIPEDTAVYYCAAVGRYPYKGYNYWGQGTQVTVSS”, the “polyreactivity (PSR sort gate)” value is listed as “high polyreactivity”.

Take “QVQLVESGGGLVQAGGSLRLSCAASGRTFFVNAMGWYRQAPGKERELVAGITRTGGTTYYADSVKGRFTISRDNAKNTVYLQMNSLKPEDTAVYYCAATPGGTDLGGGYYGFDYWGQGTQVTVSS”: the “polyreactivity (PSR sort gate)” value is given as “low polyreactivity”.

“QVQLVESGGGLVQAGGSLRLSCAASGRTFFVYDMGWYRQAPGKERELVAAISRGGSTNYADSVKGRFTISRDNAKNTVYLQMNSLKPEDTAVYYCAASVQYRRLKKFYYWGQGTQVTVSS”: the “polyreactivity (PSR sort gate)” value is on record as “high polyreactivity”.

In the case of “QVQLVESGGGLVQAGGSLRLSCAASGRTFFWYAMGWYRQAPGKERELVADISSSGGSTYYADSVKGRFTISRDNAKNTVYLQMNSLKPEDTAVYYCAALSPWWRGGYDYWGQGTQVTVSS”, the “polyreactivity (PSR sort gate)” value was “high polyreactivity”.

Take “QVQLVESGGGLVQAGGSLRLSCAASGRTFFWYAMGWYRQAPGKERELVAGISRGGRTNYADSVKGRFTISRDNAKNTVYLQMNSLKPEDTAVYYCAADSWLTYFLGTSEHYYWGQGTQVTVSS”: the “polyreactivity (PSR sort gate)” value is “high polyreactivity”.

In the case of “QVQLVESGGGLVQAGGSLRLSCAASGRTFFWYVMGWYRQAPGKERELVATISYGGITYYADSVKGRFTISRDNAKNTVYLQMNSLKPEETALYYCAAKPSRSLYYYWGQGTQVTVSS”, the “polyreactivity (PSR sort gate)” value was “high polyreactivity”.

For the sequence “QVQLVESGGGLVQAGGSLRLSCAASGRTFFYNARGWYRQEPGKERELVAAIDWSGDSTYYADSVKGRFTISRDNAKNTVYLQMNSLKPEDTAVYYCAARRKNRRDYDYYYWGQGTQVTVSS”, the “polyreactivity (PSR sort gate)” value was “high polyreactivity”.

For the sequence “QVQLVESGGGLVQAGGSLRLSCAASGRTFFYNTMGWYRQAPGKERELVARITRGGSTYYADSVKGRFTISRDNAKNSVYLQMNSLKPEDTAVYYCAAGYWRGYFLYGFDYWGQGTQVTVSS”, the “polyreactivity (PSR sort gate)” value is “high polyreactivity”.

On to “QVQLVESGGGLVQAGGSLRLSCAASGRTFGANAMGWYRQAPGKERELVAAINSGDITNYADSVKGRFTISRDNAKNTVYLQMNSLKPEDTAVYYCAAGSYYTYSGYNYWGQGTQVTVSS”, for which the “polyreactivity (PSR sort gate)” value is “low polyreactivity”.

Regarding “QVQLVESGGGLVQAGGSLRLSCAASGRTFGAYAMGCYRQAPGKERELVAAISIGGRTYYADSVKGRFTISRDKAKNTVYLQMNILKPEDTAVYYCNKVRSPWYDSWGQGTQVTVSS”, the “polyreactivity (PSR sort gate)” value is reported as “high polyreactivity”.

Consider “QVQLVESGGGLVQAGGSLRLSCAASGRTFGAYAMGWYRQAPGKERELVAAISSSGGSTYYADSLKGRFTISRDNAKNTVYLQMNSLKPEDTAVYYCAKGWHRGVGFGYWGQGTQVTVSS”, for which the “polyreactivity (PSR sort gate)” value is listed as “high polyreactivity”.

On to “QVQLVESGGGLVQAGGSLRLSCAASGRTFGCYAMGWYRQAPGKERELVASITQRGGRTYYADSVKGRFTISRDNAKNTVYLQMNSLKPEDTAVYYCAAKTSPGMYYWVQGTQVTVSS”, for which the “polyreactivity (PSR sort gate)” value is recorded as “high polyreactivity”.

On to “QVQLVESGGGLVQAGGSLRLSCAASGRTFGDYAMGWYRQAPGKERELVAAITIGGSTYYADSVKGRFTISRDNAKNTVYLQMNSLKPEDTAVYYCAATTYSIPSRYDSWGQGTQVNVSS”, for which the “polyreactivity (PSR sort gate)” value is “low polyreactivity”.

For “QVQLVESGGGLVQAGGSLRLSCAASGRTFGEYAMGWYRQAPGKERELVAAISSAGSTYYADSVKGRFTISRDNAKNTVYLQMNSLKPEDTAVYYCAASRKYGYGYWGQGTQVTVSS”, the “polyreactivity (PSR sort gate)” value is “high polyreactivity”.

On to “QVQLVESGGGLVQAGGSLRLSCAASGRTFGFNAMGWYRQAPGKERELVAAISSSSSSTYYADSVKGRFTISRDIAKNTVYLQMNSLKPEDTAVYYCAADIVYVTWFYYWGQGTQVTVSS”, for which the “polyreactivity (PSR sort gate)” value is “low polyreactivity”.

With “QVQLVESGGGLVQAGGSLRLSCAASGRTFGFYAMGWYRQAPGKERELVAAIRGSIGNTYYADSVKGRFTISRDNAKNTVYLQMNSLKPEDTAVYYCAKAIRYPSAKFYWGQGTQVTVSS”, the “polyreactivity (PSR sort gate)” value is reported as “high polyreactivity”.

Turning to “QVQLVESGGGLVQAGGSLRLSCAASGRTFGFYAMGWYRQAPGKERELVATISSSGGSTYYADSVKGRFTISRDNAKNTVYLQMNSLKPEDTAVYYCAADYLDSTYGYVYGWDDYWGQGTQVTVSS”, the “polyreactivity (PSR sort gate)” value is given as “low polyreactivity”.

For “QVQLVESGGGLVQAGGSLRLSCAASGRTFGFYVMGWYRQAPGKERELVAAITPGGNTNYADSVKGRFTISRDNAKNSVYLQMNRLKPEDTAVYYCAASPGTIASYEGDFWGQGTQVTVSS”, the “polyreactivity (PSR sort gate)” value is “low polyreactivity”.

For the sequence “QVQLVESGGGLVQAGGSLRLSCAASGRTFGGNAMGWYRQAPGKERELVAAISSGGSTNYADSVKGRFTISRDNAKNTVYLQMNSLKPEDTAVYYCAAGWYWWARYDYWGQGTQVTVSS”, the “polyreactivity (PSR sort gate)” value was “low polyreactivity”.

For “QVQLVESGGGLVQAGGSLRLSCAASGRTFGGNAMGWYRQAPGKERELVAAISSGGSTNYADSVKGRFTISRDNANNTVYLQMNSLKPEDTAVYYCAARGPYWGQGTQVTVSS”, the “polyreactivity (PSR sort gate)” value is listed as “low polyreactivity”.

As for “QVQLVESGGGLVQAGGSLRLSCAASGRTFGGNAMGWYRQAPGKERELVASISWSGGTTYYADSVKGRFTISRDNAKNTVYFQMNSLKPEDTAVYYCNTVNSQQYSSSHYDSWGQGTQVTVSS”, the “polyreactivity (PSR sort gate)” value is “high polyreactivity”.

For “QVQLVESGGGLVQAGGSLRLSCAASGRTFGGNTMGWYREAPGKERELVAAISRRGGSTYYADSVKGRFTISRDNAKNTVYLQMNSLKPEDTAVYYCNKDGPSYSSYDYWGQGTQVTVSS”, the “polyreactivity (PSR sort gate)” value is given as “low polyreactivity”.

“QVQLVESGGGLVQAGGSLRLSCAASGRTFGGNTMGWYRQAPGKERELVAAISFSGGSTYYADSVKGRFTISRDNAKNTVYLQMNSLKPEDTAVYYCAREDYSHSFLTYDYWGQGTQVTVSS”: the “polyreactivity (PSR sort gate)” value is on record as “low polyreactivity”.

Take “QVQLVESGGGLVQAGGSLRLSCAASGRTFGGYALGWYRQAPGKERELVATISYSSGSTYYADSVKGRFTISRDNAKNTVYLQMNSLKPEETAVYYCAARIRYFYRYDYWGQGTQVTVTS”: the “polyreactivity (PSR sort gate)” value is listed as “high polyreactivity”.

As to “QVQLVESGGGLVQAGGSLRLSCAASGRTFGGYAMGWYRQAPGKERELVAAITSDTGTNYADSVKGRFTISRDNAKNTVYLQMNSLKPEDTAVYYCAADRFYEYDYWGQGTQVTVSS”, the “polyreactivity (PSR sort gate)” value is recorded as “low polyreactivity”.

On to “QVQLVESGGGLVQAGGSLRLSCAASGRTFGGYTMGWYRQAPGKEREFVAAITWSTGGSTYYADSVKGRFTISRDNAKNTVYLQMNSLKPEDTAVYYCAKDLYLHTYYAYPYRFGSGYYWGLGTQVTVSS”, for which the “polyreactivity (PSR sort gate)” value is listed as “low polyreactivity”.

For the sequence “QVQLVESGGGLVQAGGSLRLSCAASGRTFGGYTMGWYRQAPGKERELVAAISWGGGSTYYADSVKGRFTISRDNAKNTVYLQMNSLKPEDTAVYYCAAVSPNLRLFGYRYRYEYWGQGTQVTVSS”, the “polyreactivity (PSR sort gate)” value is “high polyreactivity”.

The record behind these values is the nanobody polyreactivity screen of Harvey et al. (2022).
